The test addresses T1, ubiquitin-PA (C-terminally propargylated ubiquitin 1-75) (human, UniProt P0CG48 1-75, C-terminal propargylamide (PA)).
T1 construct: also called Ub-PA; wildtype Ub-PA; not shown: intein (from the vector pTXB1), C-terminal, cleaved
The test can be described thus: crystal structure; covalent complex: 1.2 mM Wc-VTD1 incubated with 760 µM ubiquitin-PA for 18 h at 4 °C, unreacted proteins removed by SEC; crystals in 0.1 M BisTris propane pH 7.0, 2.0 M ammonium citrate tribasic at 20 °C. Conditions: both partners purified. On the technique in general: In gel filtration, larger molecules generally elute earlier.

B1: Wc-VTD1 catalytic domain (aa279-494) (enzyme)
chain: KMPEEEQDSLAAFSRIEANITQYDPLLDNAGKSACTCICLKAAEMLLEASPDQVNAGLIDDILVEGVADYNRFKVGGVVEHTSVENYELNTFELKRLEFRDVDNPFSAEGNPYAGTLDSFAKMMEKASDSKDLPKPVALVMTKSNMTITIVIRPDGKYWLFDPHGTNGKGAYIESCNTDELIKKIKEIFPKTSYPGMTEDENLGFNSFEAYAVRRS
notes: also called wcw_1294; Waddlia VTD1; source: E. coli Rosetta (DE3) pLysS, purified (HisTrap, SEC)
As for B1, the binding result is reported as “binds”.

The values are drawn from publication PMC9741609, “A widely distributed family of eukaryotic and bacterial deubiquitinases related to herpesviral large tegument proteins” (Nature Communications, 2022).
